Target: T1, M2 protein expressed on the surface of PR8-infected MDCK cells (Influenza A virus A/Puerto Rico/8/1932 …, UniProt P06821 1-97)
T1 construct: whole, on cells
Experiment: FMAT, crude supernatant on PR8-infected MDCK cells

T1 sequence (P06821 whole entry): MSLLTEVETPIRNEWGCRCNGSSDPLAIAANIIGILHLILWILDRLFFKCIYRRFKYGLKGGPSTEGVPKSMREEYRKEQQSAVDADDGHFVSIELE

B1: 23K12 (antibody, V domains shown)
VH: EVQLVESGGGLVQPGGSLRISCAASGFTVSSNYMSWVRQAPGKGLEWVSVIYSGGSTYYADSVKGRFSFSRDNSKNTVFLQMNSLRAEDTAVYYCARCLSRMRGYGLDVWGQGTTVTVS
VL: DIQMTQSPSSLSASVGDRVTITCRTSQSISSYLNWYQQKPGKAPKLLIYAASSLQSGVPSRFSGSGSGTDFTLTISGLQPEDFATYYCQQSYSMPAFGQGTKLEIK
  binding result: binds

— US20120121603A1 (THERACLONE SCIENCES, published 2012)
